Measured values as given in patent publication US20230183713A1, “SITE-SPECIFIC RECOMBINASES FOR EFFICIENT AND SPECIFIC GENOME EDITING” (TECHNISCHE UNIVERSITÄt DRESDEN, published 2023).

T1: Cre recombinase monomer with Q311R mutation
T1 chain: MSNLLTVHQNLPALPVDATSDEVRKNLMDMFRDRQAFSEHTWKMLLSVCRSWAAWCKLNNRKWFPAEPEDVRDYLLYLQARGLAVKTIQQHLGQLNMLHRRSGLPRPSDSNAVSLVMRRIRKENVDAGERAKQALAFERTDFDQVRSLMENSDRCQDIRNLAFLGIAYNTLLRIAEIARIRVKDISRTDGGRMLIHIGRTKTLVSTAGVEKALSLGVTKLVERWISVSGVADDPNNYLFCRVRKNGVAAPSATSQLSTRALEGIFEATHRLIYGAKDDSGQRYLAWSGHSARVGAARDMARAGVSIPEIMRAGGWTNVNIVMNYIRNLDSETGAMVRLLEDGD

T2: Cre recombinase monomer with R292M mutation
T2 chain: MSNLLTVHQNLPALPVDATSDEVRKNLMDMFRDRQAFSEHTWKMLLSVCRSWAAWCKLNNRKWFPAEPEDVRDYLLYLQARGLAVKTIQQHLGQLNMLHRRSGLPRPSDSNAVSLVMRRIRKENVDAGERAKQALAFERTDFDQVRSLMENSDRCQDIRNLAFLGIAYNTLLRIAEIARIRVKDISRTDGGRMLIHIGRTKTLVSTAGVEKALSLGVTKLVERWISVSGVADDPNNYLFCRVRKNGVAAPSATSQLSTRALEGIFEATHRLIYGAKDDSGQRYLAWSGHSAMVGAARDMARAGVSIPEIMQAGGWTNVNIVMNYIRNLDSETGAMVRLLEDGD

T3: Cre recombinase monomer with R292S mutation
T3 chain: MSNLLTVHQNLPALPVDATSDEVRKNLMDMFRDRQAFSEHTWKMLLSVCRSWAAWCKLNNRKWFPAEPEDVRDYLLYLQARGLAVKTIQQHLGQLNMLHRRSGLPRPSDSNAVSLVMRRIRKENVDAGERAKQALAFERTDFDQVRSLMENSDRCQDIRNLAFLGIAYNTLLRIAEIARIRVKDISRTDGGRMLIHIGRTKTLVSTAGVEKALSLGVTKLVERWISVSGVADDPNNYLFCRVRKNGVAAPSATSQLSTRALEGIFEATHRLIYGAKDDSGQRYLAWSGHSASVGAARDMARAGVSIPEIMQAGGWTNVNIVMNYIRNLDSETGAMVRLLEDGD

T4: Cre recombinase monomer with Y324F mutation
T4 chain: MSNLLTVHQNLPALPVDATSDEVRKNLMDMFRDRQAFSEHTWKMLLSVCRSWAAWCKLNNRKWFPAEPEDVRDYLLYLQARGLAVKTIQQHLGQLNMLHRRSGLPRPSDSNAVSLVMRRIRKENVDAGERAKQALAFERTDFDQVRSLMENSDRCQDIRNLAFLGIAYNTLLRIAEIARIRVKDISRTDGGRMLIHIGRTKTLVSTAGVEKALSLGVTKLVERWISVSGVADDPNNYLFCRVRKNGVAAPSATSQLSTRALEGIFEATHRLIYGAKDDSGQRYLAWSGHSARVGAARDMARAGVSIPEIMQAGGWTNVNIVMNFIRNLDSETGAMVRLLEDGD

T5: Cre recombinase monomer with Y324W mutation
T5 chain: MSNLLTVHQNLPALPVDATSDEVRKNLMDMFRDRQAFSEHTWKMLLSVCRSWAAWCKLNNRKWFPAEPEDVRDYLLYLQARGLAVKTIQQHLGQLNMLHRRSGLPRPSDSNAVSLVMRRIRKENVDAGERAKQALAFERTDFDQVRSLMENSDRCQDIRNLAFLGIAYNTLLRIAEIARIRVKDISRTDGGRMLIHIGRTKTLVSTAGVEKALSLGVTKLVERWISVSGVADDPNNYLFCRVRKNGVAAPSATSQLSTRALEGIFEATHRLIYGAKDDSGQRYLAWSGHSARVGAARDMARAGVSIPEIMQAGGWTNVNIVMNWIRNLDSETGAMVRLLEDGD

T6: Cre recombinase monomer with R292I mutation
T6 chain: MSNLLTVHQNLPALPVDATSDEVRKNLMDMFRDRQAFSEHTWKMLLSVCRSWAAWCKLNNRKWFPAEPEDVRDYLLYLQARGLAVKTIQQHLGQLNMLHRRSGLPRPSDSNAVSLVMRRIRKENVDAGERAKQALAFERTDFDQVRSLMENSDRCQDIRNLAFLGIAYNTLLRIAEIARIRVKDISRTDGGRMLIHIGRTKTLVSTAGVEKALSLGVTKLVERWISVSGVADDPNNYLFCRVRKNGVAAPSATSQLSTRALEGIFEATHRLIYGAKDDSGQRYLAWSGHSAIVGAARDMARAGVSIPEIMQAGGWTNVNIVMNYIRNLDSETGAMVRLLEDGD

T7: Cre recombinase monomer with R292N mutation
T7 chain: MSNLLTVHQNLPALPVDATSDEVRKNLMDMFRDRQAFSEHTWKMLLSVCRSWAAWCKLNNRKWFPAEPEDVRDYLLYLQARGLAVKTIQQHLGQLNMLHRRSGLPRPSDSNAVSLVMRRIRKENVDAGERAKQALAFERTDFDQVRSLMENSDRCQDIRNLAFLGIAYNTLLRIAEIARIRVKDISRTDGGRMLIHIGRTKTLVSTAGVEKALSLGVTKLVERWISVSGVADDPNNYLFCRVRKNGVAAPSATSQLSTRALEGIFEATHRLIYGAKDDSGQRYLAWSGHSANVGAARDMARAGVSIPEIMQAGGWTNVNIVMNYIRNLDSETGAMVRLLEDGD

T8: Cre recombinase monomer with R292T mutation
T8 chain: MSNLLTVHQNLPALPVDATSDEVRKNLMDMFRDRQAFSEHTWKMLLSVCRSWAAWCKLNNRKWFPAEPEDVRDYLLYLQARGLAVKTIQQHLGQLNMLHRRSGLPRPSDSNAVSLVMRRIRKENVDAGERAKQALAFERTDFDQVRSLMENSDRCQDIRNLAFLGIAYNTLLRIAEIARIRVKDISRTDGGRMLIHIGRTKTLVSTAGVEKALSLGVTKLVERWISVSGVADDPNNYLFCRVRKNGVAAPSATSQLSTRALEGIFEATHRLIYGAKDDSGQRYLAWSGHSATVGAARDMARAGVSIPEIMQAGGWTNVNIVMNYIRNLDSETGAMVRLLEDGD


Assays:
[1] = target: T1, Cre recombinase monomer with Q311R …
[2] = target: T2, Cre recombinase monomer with R292M …
[3] = target: T3, Cre recombinase monomer with R292S …
[4] = target: T4, Cre recombinase monomer with Y324F …
[5] = target: T5, Cre recombinase monomer with Y324W …
[6] = target: T6, Cre recombinase monomer with R292I …
[7] = target: T7, Cre recombinase monomer with R292N …
[8] = target: T8, Cre recombinase monomer with R292T …

| Protein | Median dimer activity (recombination on loxP) [1] | Median dimer activity (recombination on loxP) [2] | Median dimer activity (recombination on loxP) [3] | Median dimer activity (recombination on loxP) [4] | Median dimer activity (recombination on loxP) [5] | Median dimer activity (recombination on loxP) [6] | Median dimer activity (recombination on loxP) [7] | Median dimer activity (recombination on loxP) [8] |
| --- | --- | --- | --- | --- | --- | --- | --- | --- |
| Cre recombinase monomer with E176I mutation (protein) MSNLLTVHQNLPALPVDATSDEVRKNLMDMFRDRQAFSEHTWKMLLSVCRSWAAWCKLNNRKWFPAEPEDVRDYLLYLQARGLAVKTIQQHLGQLNMLHRRSGLPRPSDSNAVSLVMRRIRKENVDAGERAKQALAFERTDFDQVRSLMENSDRCQDIRNLAFLGIAYNTLLRIAIIARIRVKDISRTDGGRMLIHIGRTKTLVSTAGVEKALSLGVTKLVERWISVSGVADDPNNYLFCRVRKNGVAAPSATSQLSTRALEGIFEATHRLIYGAKDDSGQRYLAWSGHSARVGAARDMARAGVSIPEIMQAGGWTNVNIVMNYIRNLDSETGAMVRLLEDGD | 36% | 43% | 40% | 67% | 50% |  |  |  |
| Cre recombinase monomer with E176V mutation (protein) MSNLLTVHQNLPALPVDATSDEVRKNLMDMFRDRQAFSEHTWKMLLSVCRSWAAWCKLNNRKWFPAEPEDVRDYLLYLQARGLAVKTIQQHLGQLNMLHRRSGLPRPSDSNAVSLVMRRIRKENVDAGERAKQALAFERTDFDQVRSLMENSDRCQDIRNLAFLGIAYNTLLRIAVIARIRVKDISRTDGGRMLIHIGRTKTLVSTAGVEKALSLGVTKLVERWISVSGVADDPNNYLFCRVRKNGVAAPSATSQLSTRALEGIFEATHRLIYGAKDDSGQRYLAWSGHSARVGAARDMARAGVSIPEIMQAGGWTNVNIVMNYIRNLDSETGAMVRLLEDGD |  |  | 28% |  |  | 33% | 31% | 45% |
